Laboratory results as given in paper PMC2377106 (2003).

B1: [125I]VEGF (protein)
chain: MTDRQTDTAPSPSYHLLPGRRRTVDAAASRGQGPEPAPGGGVEGVGARGVALKLFVQLLGCSRFGGAVVRAGEAEPSGAARSASSGREEPQPEEGEEEEEKEEERGPQWRLGARKPGSWTGEAAVCADSAPAARAPQALARASGRGGRVARRGAEESGPPHSPSRRGSASRAGPGRASETMNFLLSWVHWSLALLLYLHHAKWSQAAPMAEGGGQNHHEVVKFMDVYQRSYCHPIETLVDIFQEYPDEIEYIFKPSCVPLMRCGGCCNDEGLECVPTEESNITMQIMRIKPHQGQHIGEMSFLQHNKCECRPKKDRARQEKKSVRGKGKGQKRKRKKSRYKSWSVPCGPCSERRKHLFVQDPQTCKCSCKNTDSRCKARQLELNERTCRCDKPRR
modifications: 125I-labelled VEGF
B2: CPG2(Q)3-VEGF109-H6 1-109 (protein)
chain: MTDRQTDTAPSPSYHLLPGRRRTVDAAASRGQGPEPAPGGGVEGVGARGVALKLFVQLLGCSRFGGAVVRAGEAEPSGAARSASSGREEPQPEEGEEEEEKEEERGPQW
modifications: fusion to C-terminus of CPG2(Q)3 (aa 23-415), H6 tag
B3: VEGF161-CPG2(Q)3-H6 1-161 (protein)
chain: MTDRQTDTAPSPSYHLLPGRRRTVDAAASRGQGPEPAPGGGVEGVGARGVALKLFVQLLGCSRFGGAVVRAGEAEPSGAARSASSGREEPQPEEGEEEEEKEEERGPQWRLGARKPGSWTGEAAVCADSAPAARAPQALARASGRGGRVARRGAEESGPPH
modifications: fusion to N-terminus of CPG2(Q)3 (aa 23-415), H6 tag
B4: VEGF115-CPG2(Q)3-H6 1-115 (protein)
chain: MTDRQTDTAPSPSYHLLPGRRRTVDAAASRGQGPEPAPGGGVEGVGARGVALKLFVQLLGCSRFGGAVVRAGEAEPSGAARSASSGREEPQPEEGEEEEEKEEERGPQWRLGARK
modifications: fusion to N-terminus of CPG2(Q)3 (aa 23-415), H6 tag

Experiments:
VEGFR2(ΔKD)m -20-809 [1] = molecular target: T1, VEGFR2(ΔKD)m -20-809 (Homo sapiens, UniProt P35968); assay: solid-phase radioligand binding
T1 chain: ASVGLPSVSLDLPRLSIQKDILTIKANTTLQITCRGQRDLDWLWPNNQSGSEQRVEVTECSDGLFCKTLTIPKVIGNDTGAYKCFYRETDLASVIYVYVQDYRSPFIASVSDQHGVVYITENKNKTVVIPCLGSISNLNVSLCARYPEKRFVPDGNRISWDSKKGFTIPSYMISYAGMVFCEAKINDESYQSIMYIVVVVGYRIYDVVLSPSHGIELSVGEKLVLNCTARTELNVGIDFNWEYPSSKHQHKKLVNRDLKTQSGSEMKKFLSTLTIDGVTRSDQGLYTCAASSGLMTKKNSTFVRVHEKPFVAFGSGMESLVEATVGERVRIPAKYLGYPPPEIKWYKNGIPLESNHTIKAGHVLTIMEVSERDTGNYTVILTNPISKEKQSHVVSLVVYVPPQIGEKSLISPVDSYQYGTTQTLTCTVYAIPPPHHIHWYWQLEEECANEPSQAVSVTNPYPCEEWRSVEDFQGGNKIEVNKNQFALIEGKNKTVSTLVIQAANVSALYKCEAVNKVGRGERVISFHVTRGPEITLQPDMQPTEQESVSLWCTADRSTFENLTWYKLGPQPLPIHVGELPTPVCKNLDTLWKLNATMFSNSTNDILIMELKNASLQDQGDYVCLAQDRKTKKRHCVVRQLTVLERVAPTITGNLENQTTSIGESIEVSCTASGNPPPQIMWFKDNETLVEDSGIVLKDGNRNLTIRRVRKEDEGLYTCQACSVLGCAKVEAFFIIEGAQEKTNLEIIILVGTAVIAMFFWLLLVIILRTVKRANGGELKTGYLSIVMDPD

VEGFR2(ΔKD)m -20-809 [2] = molecular target: T1, VEGFR2(ΔKD)m -20-809; assay: competition RIA
VEGFR2(ΔKD)m -20-809 [3] = molecular target: T1, VEGFR2(ΔKD)m -20-809; assay: ELISA

Binder | Kd (VEGFR2(ΔKD)m -20-809 [1]) [nM] | Kd (VEGFR2(ΔKD)m -20-809 [2]) [nM] | Kd (VEGFR2(ΔKD)m -20-809 [3]) [nM]
B1 | 0.51 | – | –
B2 | – | 1.3 | 0.75
B3 | – | 3.3 | 1.06
B4 | – | 9.6 | 0.51
